Square brackets hold non-standard residues; d marks the D form. Ends that are not written are not given here. pS = N[C@@H](COP(=O)(O)O)C(=O)O
target: T1, PKC-theta (Homo sapiens, UniProt Q04759); test: In vitro kinase assay: peptide phosphorylation by PKC-theta; format: biochemical; settings: not given
T1 construct: His-tag; made in house; host or cells: baculovirus-infected Sf9 cells
Text: A second strategy for validation of the PSSM derived from the methods described herein is to identify sequences represented in the human proteome that have low percentiles derived from the PSSM, to synthesize peptides that have those sequences, and test the efficiency of phosphorylation of those peptides by the kinase of interest. […] The results are shown for individual peptides (FIG. 11, panel A) or for groups of peptides aggregated by percentile prediction (FIG. 11, panel B). As with the testing described above with prospectively chosen peptides, the percentile scores are highly predictive of phosphorylation by the relevant kinase.
An example of the purification procedure used for production of active kinase is as follows. A preparation of PKC-theta was prepared using a Gateway expression construct containing PKC-theta that was expressed in baculovirus, which were used to infect Sf9 cells. The cell pellet from a liter of baculovirus-infected Sf9 cells was resuspended in 20 volumes (60 ml) of extraction buffer (20 mM Na phosphate buffer pH 7.5, 500 mM NaCl, 5 mM pyrophosphate, 10% glycerol, 10 mM imidazole, 1 mM PMSF), sonicated twice for one minute (1 cm tip at 60% power and 50% duty cycle) and cell disruption was verified microscopically. The sample was adjusted to five mM MgCl2 and treated with one U benzonase/ml for an additional 20 minute on ice. The sample was clarified by centrifugation in a JA-20 rotor at 15K for 30 min at 4° C., filtered through a […] filter and applied at 0.5 ml/min to a one ml chelating sepharose column previously charged with nickel and equilibrated with extraction buffer. The column was washed with extraction buffer at one ml/min to baseline and eluted in a 20 ml gradient (20-500 mM imidazole in extraction buffer) into one ml fractions that were analyzed by SDS-PAGE. Fractions with the highest concentration of protein were pooled, were dialyzed twice against one liter of 20 mM Na PO4 pH 7.5, 50 mM NaCl buffer. The kinase pool was dialyzed twice against 20 mM HEPES pH 7.4, 100 mM NaCl, 2 mM EDTA, 5 mM DTT, 0.05% Triton-X-100. After dialysis, the sample was adjusted to 50% glycerol and quick-frozen in a dry ice/ethanol bath.
The conditions of the kinase assay and the amount of active kinase used varied with the kinase and with the accuracy needed. For a typical experiment, 5-20 ng of kinase was used per well and each peptide pool was assayed in duplicate wells. Note that the absolute amount of kinase used was not usually a critical parameter, because the desired information related to specificity of the kinase not its absolute activity, and robustness of the assay depends on comparisons of the same amount of kinase on different peptides. The combination of kinase concentration and assay duration was modified to assure that the stoichiometry of peptide phosphorylation never exceeded 5%. The choice of kinase buffer depended on the kinase being analyzed. For studies of PKC, 100 mM HEPES, 0.05% Triton-X100, 1 mM CaCl2, 20 mM MgCl2, 0.2 mg/ml phosphatidyl serine (Avanti Polar Lipids), PMA 100 ng/ml was typically used. The lipid stock was prepared by transferring 3 mg phosphatidyl serine into iced mixture of 450 μl water plus 50 μl of 10% Triton-X100, sonicating 10 times on ice for 1 sec each.
The kinase reaction mixture was assembled by sequential addition to a tube held on ice of: 5 μl peptide (100 μM for final concentration of 10 μM), 15 μl of kinase (typically 5 ng/well, in appropriate kinase buffer), 30 μl of ATP (1 uCi/well of ^32P-gamma ATP in a stock of 167 μM cold ATP in the kinase buffer; for final concentration for 100 μM ATP). The mixture was rapidly warmed to desired reaction temperature (30° C. for PKC) and incubated for the desired duration (usually 10 minutes). The kinase assay was terminated by transfer to 4° C. water batch, and rapid addition of an equal volume (50 μl) of stop solution [0.1M ATP+0.1M EDTA in water, pH 8]. […]

T1 sequence (Q04759 whole entry): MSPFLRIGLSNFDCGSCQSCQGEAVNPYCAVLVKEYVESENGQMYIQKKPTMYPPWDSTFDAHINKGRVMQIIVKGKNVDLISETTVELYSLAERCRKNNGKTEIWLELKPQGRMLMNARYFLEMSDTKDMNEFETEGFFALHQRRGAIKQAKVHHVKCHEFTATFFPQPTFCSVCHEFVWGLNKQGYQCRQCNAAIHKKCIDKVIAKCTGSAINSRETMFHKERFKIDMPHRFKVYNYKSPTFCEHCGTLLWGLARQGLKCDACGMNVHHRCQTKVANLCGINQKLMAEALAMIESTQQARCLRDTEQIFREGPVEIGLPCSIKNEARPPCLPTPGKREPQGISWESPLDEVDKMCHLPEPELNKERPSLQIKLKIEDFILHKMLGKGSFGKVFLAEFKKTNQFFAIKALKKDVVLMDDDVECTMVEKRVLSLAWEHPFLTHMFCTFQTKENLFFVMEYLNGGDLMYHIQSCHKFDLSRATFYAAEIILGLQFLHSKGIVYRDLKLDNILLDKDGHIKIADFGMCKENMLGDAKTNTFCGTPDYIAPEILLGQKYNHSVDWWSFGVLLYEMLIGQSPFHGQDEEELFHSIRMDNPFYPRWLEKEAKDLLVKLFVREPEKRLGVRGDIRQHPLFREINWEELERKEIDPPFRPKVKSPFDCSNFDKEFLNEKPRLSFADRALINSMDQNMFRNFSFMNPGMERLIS

Row | in vitro phosphorylation by PKC | Substance
1 | phosphorylated by PKC | 209 (DKEKSKGSLKRK) [compound 209]

same assay, conditions: normalized to best substrate

Row | Substance | Measured in vitro phosphorylation by PKC-theta
2 | 178 (RRRRSRTFSRS) [compound 178] | 65%
3 | 174 (KKERRRNSINRN) [compound 174] | 83%
4 | 203 (VRRSKKSKKKES) [compound 203] | 24%
5 | 206 (KSSRNSTSVKKK) [compound 206] | 19%
6 | 201 (TQDRRKSLFKKI) [compound 201] | 25%
7 | 181 (TGERKRKSVRG) [compound 181] | 62%
8 | 207 (SFRGHITRKKLK) [compound 207] | 18%
9 | 208 (VSRPRKSRKRVD) [compound 208] | 17%
10 | 202 (VMKRKFSLRAAE) [compound 202] | 24%
11 | 175 (KKRRTKSSRRGV) [compound 175] | 80%
12 | 190 (RRRRHTMDKDSR) [compound 190] | 40%
13 | 216 (SCRTSSRKRAGK) [compound 216] | 11%
14 | 209 (DKEKSKGSLKRK) [compound 209] | 17%
15 | 176 (RRERSRSRRKQ) [compound 176] | 66%
16 | 187 (LRRKSSTRHIHA) [compound 187] | 48%
17 | 214 (SRRRSPSYSRHS) [compound 214] | 13%
18 | 192 (GNRKGKSKKWRQ) [compound 192] | 35%
19 | 177 (RRRRRRSRTFSR) [compound 177] | 66%
20 | 179 (KRHYRKSVRSRS) [compound 179] | 65%
21 | 168 (AMSRSASKRRSR) [compound 168] | 100%
22 | 210 (PLRRRESMHVEQ) [compound 210] | 16%
23 | 169 (RTRSRRLTFRK) [compound 169] | 100%
24 | 200 (EQQRRALSFRQ) [compound 200] | 26%
25 | 185 (KKFKRRLSLTLR) [compound 185] | 51%
26 | 191 (HKRNSVRLVIR) [compound 191] | 38%
27 | 189 (GRRRRSRSKVK) [compound 189] | 43%

Second part, the substance after the results:

Row | Measured in vitro phosphorylation by PKC-theta | Substance
28 | 13% | 212 (VSRGSSLKILSK) [compound 212]
29 | 13% | 213 (RHSRSRSRHRLS) [compound 213]
30 | 16% | 211 (RSRSYSRSRSR) [compound 211]
31 | 98% | 170 (VKLRRSKKRTKR) [compound 170]
32 | 22% | 204 (RFSRRSSSWRIL) [compound 204]
33 | 92% | 171 (RRGRRSTKKRRR) [compound 171]
34 | 65% | 180 (FLRRSSSRRNRS) [compound 180]
35 | 22% | 205 (EGRRSRSRRYSG) [compound 205]
36 | 34% | 194 (KRRKRKSLQRHK) [compound 194]
37 | 32% | 197 (ILRPSKSVKLRS) [compound 197]
38 | 55% | 183 (ARRSKRSRRRET) [compound 183]
39 | 12% | 215 (TKKRSKSRSKER) [compound 215]
40 | 61% | 182 (TKKKRGSYRGGS) [compound 182]
41 | 33% | 195 (PGSSHRKTKK) [compound 195]
42 | 86% | 172 (VRRRRSQRISQR) [compound 172]
43 | 50% | 186 (DFRRRRSFRRIA) [compound 186]
44 | 54% | 184 (FRASSRSTTK) [compound 184]
45 | 35% | 193 (PLRKSSLKKGGR) [compound 193]
46 | 44% | 188 (ERGRRGSKKGSI) [compound 188]
47 | 85% | 173 (RSGRRRGSQKS) [compound 173]
48 | 27% | 199 (RGRRSRSRLRRR) [compound 199]
49 | 28% | 198 (RRRRPTKSKGSK) [compound 198]
50 | 32% | 196 (RWKRRRSYSREH) [compound 196]

tested on: pPKC antibody; test: ELISA binding of pPKC antibody to synthesized SHP-1 phosphopeptides; settings: ELISA
Description: Tests were conducted to test whether SHP-1 is phosphorylated in vivo at Ser-591, Ser-26 or Ser-300. To do so, a strategy was employed that used a commercially available antibody from Cell Signaling Technology that is referred to as a phospho-PKC motif antibody (designated herein as pPKC Ab). (See U.S. Pat. No. 6,441,140 and Cell Signaling Technology Datasheet for ‘Phospho-(Ser) PKC Substrate Antibody’). […] Such antibodies can be used for detection of unknown proteins that contain phosphorylation sites conforming to the motif to which they bind. For example, phosphorylated proteins can be detected on two-dimensional gels with the pPKC Ab and the identity of these phosphorylated proteins can be confirmed by the observed molecular weight, isoelectric point and other information such as the predictive algorithms provided herein. Similarly, such detected proteins can be enriched by classical biochemical separations, and when sufficiently enriched, can be identified by mass spectrometry (Astoul E et al. 2003. J Biol Chem 278:9267-9275).
Because these studies of SHP-1 were an early precedent-setting study, a rigorous approach was adopted in determining whether pPKC antibody binding included one or more of the three predicted SHP-1 sites. Phosphorylated peptides corresponding to the three best predicted PKC sites were synthesized (Table 7) in microtiter wells using a method of prior art described in U.S. Pat. No. 6,031,074. In addition, phosphorylated peptides corresponding to others sites in SHP-1 that match part of the motif detected by the pPKC antibody were also synthesized. Those phosphorylated peptides were then analyzed for reactivity with the pPKC antibody in an ELISA assay.
Among the phosphorylated peptides corresponding to sites in SHP-1, the best binding of pPKC antibody was detected with the phosphorylated peptide corresponding to Ser-591 (Table 7; […]).

Row | Substance | binding of pPKC antibody to phosphorylated peptide
51 | LKGRGVHG-pS-FLARPSRK (LKGRGVHG[pS]FLARPSRK) [SEQ ID NO 299] | distinctly lower but readily detectable binding
52 | HGSFLARP-pS-RKNQGDFS (HGSFLARP[pS]RKNQGDFS) [SEQ ID NO 300] | distinctly lower but readily detectable binding
53 | ADKEKSKG-pS-LKRK---- (ADKEKSKG[pS]LKRK) [SEQ ID NO 298] | best binding

same assay, conditions: ELISA on phosphopeptide; normalized to the value for the Ser-591 peptide

Row | Substance | Binding of pPKC antibody
54 | 291 (AHAKASRT[pS]SKHKEDVY) [compound 291] | 12
55 | 296 (KNQGDFSL[pS]VRVGDQVT) [compound 296] | 3
56 | 289 (MKNAHAKA[pS]RTSSKHKE) [compound 289] | 18
57 | 293 (PSEPGGVL[pS]FLDQINQR) [compound 293] | 9
58 | 292 (KKKLEVLQ[pS]QKGQESEY) [compound 292] | 11

Continued, values first:

Row | Binding of pPKC antibody | Substance
59 | 7 | 294 (HAKASRTS[pS]KHKEDVYE) [compound 294]
60 | 5 | 295 (PWTFLVRE[pS]LSQPGDFV) [compound 295]
61 | 13 | 290 (RVILQGRD[pS]NIPGSDYI) [compound 290]
62 | 54 | 299 (LKGRGVHG[pS]FLARPSRK) [compound 299]
63 | 39 | 300 (HGSFLARP[pS]RKNQGDFS) [compound 300]
64 | 100 | 298 (ADKEKSKG[pS]LKRK) [compound 298]
65 | 0 | 297 (PLNCSDPT[pS]ERWYHGHM) [compound 297]
